We go through 6 molecules from patent US20240109974A1 (SHANDONG SIMCERE BIOPHARMACEUTICAL, published 2024).

Test [1] has as its target T1, Cynomolgus TNFR2-His (Sino 90102-C08H) (cynomolgus monkey, UniProt A0A2K5VET2 132-366).
T1 construct: Bought protein; also called cynomolgus monkey TNFR2; recombinant cynomolgus monkey TNFR2 protein; not shown: His tag
T1 sequence: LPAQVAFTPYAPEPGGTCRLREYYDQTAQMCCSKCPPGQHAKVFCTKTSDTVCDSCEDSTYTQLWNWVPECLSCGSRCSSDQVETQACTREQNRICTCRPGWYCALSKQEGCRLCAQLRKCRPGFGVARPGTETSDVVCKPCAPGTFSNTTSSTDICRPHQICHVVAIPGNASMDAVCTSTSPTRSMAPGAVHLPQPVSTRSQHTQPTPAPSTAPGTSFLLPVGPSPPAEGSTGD
Nature of the test: SPR (Biacore T200), antibody captured on Protein A chip. A digest of the protocol:
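Anti-TNFR2 antibody was captured on a Protein A chip to give Rmax of 50 RU, then TNFR2 was injected at graded concentrations in multi-cycle kinetics. Glycine pH 1.5 regenerated the surface between cycles; KD was obtained by fitting.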
In general terms: SPR reads the build-up and loss of mass on a sensor chip optically.

Test [2] has as its target T2, human TNFR2 on the surface of CHO-TNFR2 cells (human, UniProt P20333 23-461).
T2 construct: whole, on cells
T2 sequence (looked up): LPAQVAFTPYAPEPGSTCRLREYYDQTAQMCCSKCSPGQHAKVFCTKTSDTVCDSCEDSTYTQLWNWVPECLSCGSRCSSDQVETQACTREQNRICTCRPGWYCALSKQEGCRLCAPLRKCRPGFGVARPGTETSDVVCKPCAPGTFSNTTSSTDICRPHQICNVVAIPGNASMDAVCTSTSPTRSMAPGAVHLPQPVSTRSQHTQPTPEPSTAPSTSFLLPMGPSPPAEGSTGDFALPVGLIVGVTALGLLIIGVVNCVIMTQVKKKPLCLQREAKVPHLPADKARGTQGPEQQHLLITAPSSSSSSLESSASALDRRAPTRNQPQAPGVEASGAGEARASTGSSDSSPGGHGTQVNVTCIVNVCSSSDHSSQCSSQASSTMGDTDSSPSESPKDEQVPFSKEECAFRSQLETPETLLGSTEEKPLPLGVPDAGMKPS
Nature of the test: flow cytometry on CHO-TNFR2 cells. As for the experimental part:
The transfected full-length plasmid of human TNFR2 was purchased from Sino Biological (Cat #HG10417-UT, NCBI Ref Seq: NM_001066.2). The experiment was conducted at a cell density within 80%. The cell medium was discarded; the cells were rinsed with PBS, and digested with 1 ml trypsin for 2 minutes; the digestion was stopped with a Ham's F12 complete medium containing 10% FBS, and then a cell suspension was made. The cell suspension was counted, and then an appropriate amount of cell suspension was centrifuged at 350×g; the supernatant was discarded; a corresponding volume of blocking solution (10% FBS+PBS) at a density of 1×10⁷ cells/ml was added to resuspend the cells, and the mixture was incubated at 4° C. for 30 minutes. After the incubation, the mixture was centrifuged at 350×g to remove the supernatant, and the cells were resuspended in a staining buffer (2% FBS+PBS) to a density of 2×10⁶ cells/ml, and spread onto a 96-well plate, with 50 μl of cell suspension added to each well for later use. The antibody was diluted with PBS for 10-fold gradient dilution from the highest concentration of 20 μg/m (twice the concentration); the diluted antibody was added to the well containing 50 μl of cell suspension, and placed on a microplate shaker for shaking at 500 rpm for 1 minute, so that the antibody was fully mixed with the cells; the mixture was incubated at 4° C. for 1 h. After the incubation, the cells were washed twice with the staining buffer, with 100 μl per well, and centrifuged at 350-g for 5 minutes, and the supernatant was discarded. The PE goat anti-Human IgG Fc antibody (ebioscience, Cat #12-4998-82) was diluted 250-fold with the staining buffer, with a volume of 100 μl per well added to the washed cell wells; the mixture was mixed evenly, and stained at 4° C. for 30 minutes. After the staining, similarly, the cells were washed twice with the staining buffer; finally, the cells were resuspended in 200 μl of staining buffer; signals were detected by a flow cytometer (Thermo Attune NxT). The stronger the signal, the stronger the binding ability of an antibody to TNFR2. The binding curve of an antibody was drawn with antibody concentration as the abscissa and corresponding mean fluorescence intensity (MFI) fold as the ordinate, and fitted with four parameters (GraphPad Prism9) to calculate the EC50 value.

In test [3] the target is T2, human TNFR2 on the surface of CHO-TNFR2 …. Nature of the test: competition flow cytometry on CHO-TNFR2 cells, competitor human TNFα-biotin. Here is the method:
CHO stable cells highly expressing human TNFR2 were used for the experiment (the same as CHO-TNFR2 in Example 4). The CHO-TNFR2 cells were digested, washed twice with DPBS, then stained with Live/Dead (L/D) (20 minutes at room temperature), and plated at a density of 1×10⁵ cells/50 μl/well. A test anti-TNFR2 antibody was diluted to 6 μg/ml with a staining buffer as the starting concentration: the antibody was subjected to 3.33-fold gradient dilution, with a total of 7 concentration points. The diluted antibody was added to the plated cells at 50 μl/well, and the mixture was mixed well by gentle pipetting, and incubated at 4° C. for 30 minutes. Then the diluted 100 ng/ml of human TNFα-biotin was added at 100 μl/well, and the mixture was mixed well by gentle pipetting, and then incubated at 4° C. for 30 minutes. The mixture was washed twice with a staining buffer, and then 0.12 μg/ml PE-streptavidin (BioLegend, Cat #405204) was added at 100 μl/well; the resulting mixture was incubated at 4° C. for 30 minutes. The mixture was washed twice with a staining buffer, and then 150 μl of staining buffer was added to resuspend the cells; signals were detected by a flow cytometer (Thermo Attune NxT). The inhibitory curve of an antibody was drawn with antibody concentration as the abscissa and corresponding MFI value as the ordinate, and fitted with four parameters (GraphPad Prism9) to calculate the IC50 value. The smaller the IC50 value, the stronger the ability of an antibody to inhibit the binding of human TNFα to human TNFR2. The blocking effect of a humanized antibody was normalized to its corresponding human-murine chimeric WT antibody. The higher the percentage value, the better the inhibitory effect of the humanized antibody.

B1: 001-WT (antibody, V domains shown)
VH: EVQLQESGGGLVQPGGSLNLSCAASGFAFSTYDLSWVRQTPEKRLEWVAYINNGGISTYYSDTVKGRFTISRDNAKNTLYLQMSSLKSEDTAMYYCVRGPFYGSANYFDYWGQGTTVTVSS
VL: EIVMTQSPASLSLSVGETVTITCRTSESIYSNLPWYQQKQGKSPQLLVYDATKLAEGVPSRFSGSESGTQYSLKINSLQSEDFGTYYCQHFWVTPWTFGGGTKLEIK
notes: Human-murine chimeric wild-type molecule; also called human-murine chimeric antibody WT of #001
Broadly, the Kd is the concentration at which binding is half-saturated. Read a high Kd as weaker binding. As usually defined, the koff is the rate constant with which the complex falls apart. Low values mean a long-lived complex, high ones a short-lived complex. As usually defined, the kon is a measure of how fast the partners come together. For orientation: EC50 means the concentration needed to bring the measured effect to its halfway point. In test [1], B1 gave a Kd of 0.252 nM, a koff of 0.000154 s⁻¹ and an on-rate constant (kon) of 614000 M⁻¹ s⁻¹. This molecule also gave a 50% effective concentration (EC50) in test [2] of 0.035 ng/mL.

B2: 001-Hu5 (antibody, V domains shown)
VH: EVQLVESGGGLVQPGGSLRLSCAASGFAFSTYDLSWVRQAPGKGLEWVAYINNGGISTYYSDTVKGRFTISRDNAKNTLYLQMNSLRAEDTAVYYCVRGPFYGSANYFDYWGQGTLVTVSS
VL: DIQMTQSPSSLSASVGDRVTITCRTSESIYSNLPWYQQKPGKSPKLLVYDATKLAEGVPSRFSGSGSGTDYTLTISSLQPEDFATYYCQHFWVTPWTFGQGTKVEIK
notes: Humanized form of #001; also called VH1 + VL4
As a reminder, the IC50 is the concentration at which inhibition is half-maximal. The low end stands for higher potency, the high end for lower potency. Turning to B2, in test [1], the affinity, expressed as Kd, was 0.475 nM; the koff stood at 0.000175 s⁻¹; the kon was determined as 369000 M⁻¹ s⁻¹. The molecule also registered an EC50 in test [2] of 0.029 ng/mL. In test [3], this molecule displayed an IC50 of 93 ng/mL.

B3: 001-Hu2 (antibody, V domains shown)
VH: EVQLVESGGGLVQPGGSLRLSCAASGFAFSTYDLSWVRQAPGKGLEWVAYINNGGISTYYSDTVKGRFTISRDNAKNSLYLQMNSLRAEDTAVYYCVRGPFYGSANYFDYWGQGTLVTVSS
VL: DIQMTQSPSSLSASVGDRVTITCRTSESIYSNLPWYQQKPGKSPKLLIYDATKLAEGVPSRFSGSGSGTDFTLTISSLQPEDFATYYCQHFWVTPWTFGQGTKVEIK
notes: Humanized form of #001; also called VH2 + VL2
As for B3, in test [1], the affinity, expressed as Kd, was 0.599 nM; the koff amounted to 0.000164 s⁻¹; the on-rate constant (kon) turned out to be 273000 M⁻¹ s⁻¹. In test [2], this molecule displayed a concentration for a half-maximal effect (EC50) of 0.073 ng/mL. For the same molecule, in test [3], the 50% inhibitory concentration (IC50) amounted to 101 ng/mL.

B4: 001-Hu1 (antibody, V domains shown)
VH: EVQLVESGGGLVQPGGSLRLSCAASGFAFSTYDLSWVRQAPGKGLEWVAYINNGGISTYYSDTVKGRFTISRDNAKNTLYLQMNSLRAEDTAVYYCVRGPFYGSANYFDYWGQGTLVTVSS
VL: DIQMTQSPSSLSASVGDRVTITCRTSESIYSNLPWYQQKPGKAPKLLLYDATKLAEGVPSRFSGSGSGTDYTLTISSLQPEDFATYYCQHFWVTPWTFGQGTKVEIK
notes: Humanized form of #001; also called VH1 + VL1
For the molecule B4, in test [1], the affinity, expressed as Kd, was 0.47 nM; the koff came out at 0.00016 s⁻¹; the association rate constant (kon) amounted to 340000 M⁻¹ s⁻¹. Also, it took 0.045 ng/mL to reach a half-maximal effect in test [2] (EC50). The molecule also showed an IC50 in test [3] of 87 ng/mL.

B5: 219-WT (antibody, V domains shown)
VH: EVQLQESGAELVRPGASVKLSCKASGYSFTNYWMNWVKQRPGQGLEWIGMIHPSDTETRLNQNFKDKATLTVDKSSSTSYMQLSSPTSEDSAVYYCARGEGLGAARSVSMDYWGQGTTVTVSS
VL: DILMTQSPSSLSASLGDRVTISCRASQDISNYLNWYQQKPDGTVKVLIYYTAILHSGVPSRFSGSGSGTDYSLTISNLEQEDIATYFCQQGNTLPWTFGGGTKLEIK
notes: Human-murine chimeric wild-type molecule
For B5, in test [1], the Kd turned out to be 1.14 nM, the koff was 0.000562 s⁻¹ and the kon worked out at 492000 M⁻¹ s⁻¹. This molecule also returned a 50% effective concentration (EC50) in test [2] of 0.026 ng/mL.

B6: 224-WT (antibody, V domains shown)
VH: EVQLQESGPEIVKPGASVKLSCTASGFNNKDIYMHWVKQRPEQGLEWIGRIDPATGNTKHDPKFQDKATLSSDTSSNTAYLQFSSLTSEDTAVYYCAHSPYGDFGAMDYWGQGTTVTVSS
VL: DIQMTQSPAIMSASLGERVTMTCTASSSVSSNYLHWYQQKPGSSPKLWIYSTSNLPSGVPARFSGSGSGTSYSLTISSMEAEDAATYYCHQYHRSPWTFGGGTKLEIK
notes: Human-murine chimeric wild-type molecule; also called human-murine chimeric antibody WT of #224
On to B6, for which, in test [1], binding was put at a Kd of 0.897 nM, the dissociation rate constant (koff) was determined as 0.000409 s⁻¹ and the association rate constant (kon) was 456000 M⁻¹ s⁻¹. In addition, the concentration for a half-maximal effect (EC50) in test [2] worked out at 0.04 ng/mL.
